Consider 32 sequences from the supplement of paper PMC10201428.

± gives the standard deviation of the averaged measurements.

The test system of this data set is VchCAST RNA-guided transposition machinery (E. coli BL21(DE3) host, lacZ target). Kind of data set: relative integration efficiency (T-LR orientation) vs wild-type transposon end (log2 (normalized fold change)); transposon end mutated: right end (5 bp flank + 75 bp right end); higher = more efficient transposition. The essentials:
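Relative integration efficiency is a fold change of output over input barcode abundance, normalised to reference barcodes and log-transformed. Input plasmids and genomic integration junctions were PCR-amplified and Illumina-sequenced from E. coli BL21(DE3) co-transformed with a T7-driven effector plasmid and pUC57 donor pools of 1549 left-end or 1849 right-end transposon variants. Plating was done with 0.1 mM IPTG at 37°C for 18 h, with two biological output replicates and four reference barcodes.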
In the case of “ACATTTGTTGATACACCCATAAATTGATAATTACAACCATAAAATGATAATTATCACACCCATAAATTGATATTGCCTCTGATCATAGTCAGACCAACATTGCTACGACCCGTATTCGCACCGACAC”, the “relative integration efficiency (log2)” value is -0.673 ± 0.45.

Consider “ACATTTGTTGATACAACCATAAAATGATAATTACACCCATAAATTGCGCCTTATCACACCCATAAATTGATATTGCCTCTGATCATAGTCAGACCAACATTGCTACGACCCGTATTCGCACCGACAC”, for which the “relative integration efficiency (log2)” value was -0.939 ± 0.25.

Turning to “ACATTTGTTGATACAACCATAAAATGATAATTACACCCATAAATTGATAATTGTGACACCGAATTTAACTATAACGCTCTGATCATAGTCAGACCAACATTGCTACGACCCGTATTCGCACCGACAC”, the “relative integration efficiency (log2)” value is 2.87 ± 0.14.

For the sequence “ACATTTGTTGATACAACCATAAAGTGATATTTACACCCATAAATTGATATTGCTCACAACCATAAGTTGATATTTTCTCTGATCATAGTCAGACCAACATTGCTACGACCCGTATTCGCACCGACAC”, the “relative integration efficiency (log2)” value worked out at 0.0642 ± 0.26.

On to “ACATTTGTTGATACAACCATAAAATGATAATTACACCCATAAATTGATAAAAATCACACCCATAAATTGATATTGCCTCTGATCATAGTCAGACCAACATTGCTACGACCCGTATTCGCACCGACAC”, for which the “relative integration efficiency (log2)” value is 0.324 ± 0.4.

In the case of “ACATTTGTTGATACAACCATAACCTGATAATTACACCCATAAATTGATAATTATCACACCCATAAATTGATATTGCCTCTGATCATAGTCAGACCAACATTGCTACGACCCGTATTCGCACCGACAC”, the “relative integration efficiency (log2)” value was -0.337 ± 0.089.

On to “ACATTTGTTGATACAACCATAAAATGATCATTACCCCCATCAATTGATAATTATCCCACCCCATTTAACTATAACGCTCTGATCATAGTCAGACCAACATTGCTACGACCCGTATTCGCACCGACAC”, for which the “relative integration efficiency (log2)” value was -0.338 ± 0.22.

Turning to “ACATTTGTTGATACAACCATAAAATGATAATTAATAATTATTTATAATCAGCAACTCACCCATAAATTGATAATTATCAACAAACGCCCGGTCGCGGTACTCTGATCATAGTCAGACCAACATTGCT”, the “relative integration efficiency (log2)” value was -0.174 ± 0.43.

In the case of “ACATTTGTTGATACCACCATAAAATGATAATTCCACCCATAAATTGATAATTATCACACCCAATTTAACTATAACGCTCTGATCATAGTCAGACCAACATTGCTACGACCCGTATTCGCACCGACAC”, the “relative integration efficiency (log2)” value was found to be 2.52 ± 0.15.

Turning to “ACAGGTGTTGATACAACCATAAAATGATAATTACACCCATAAATTGATAATTATCACACCCATAAATTGATATTGCCTCTGATCATAGTCAGACCAACATTGCTACGACCCGTATTCGCACCGACAC”, the “relative integration efficiency (log2)” value is -0.1 ± 0.25.

As for “ACATTTGTTGATACAACCATAAAATGATAATTACACCCATAAATTGATAATTATCACACCCATAAATTGATATTGCCTCTGCAACCATAAAATGATAATTAATCATAGTCAGACCAAGCACCGACAC”, the “relative integration efficiency (log2)” value was -0.129 ± 0.36.

“ACATTTGTTGATACAACCATAAAATGATAATTACAACCATAAAATGATAATTATCACAACCATAAAGTGATATTTACTCTGATCATAGTCAGACCAACATTGCTACGACCCGTATTCGCACCGACAC”: the “relative integration efficiency (log2)” value is -0.296 ± 0.44.

Regarding “ACATTTGTTGATACCACCATAAAATGATAATTCCACCCCTAAATTGATAATTATCACACCCAATTTAACTATAACGCTCTGATCATAGTCAGACCAACATTGCTACGACCCGTATTCGCACCGACAC”, the “relative integration efficiency (log2)” value was determined as 0.417 ± 0.16.

Take “ACATTAGTGGATACAACCATAAAATGATAATTACACCCATAAATGGATAATTATCACACCCAATTTAACTATAACGCTCTGATCATAGTCAGACCAACATTGCTACGACCCGTATTCGCACCGACAC”: the “relative integration efficiency (log2)” value is -5.46 ± 0.48.

“ACATTTGTTGATACAACCATTTAATGATAATTACACCCATAAATTGATAATTATCACACCCATAAATTGATATTGCCTCTGATCATAGTCAGACCAACATTGCTACGACCCGTATTCGCACCGACAC”: the “relative integration efficiency (log2)” value is -0.232 ± 0.26.

Consider “ACATTTGTTCATACAACCCTAAAATGATAATTACACCCATAAATTCATCATTATCACCCCCAATTTAACTATAACGCTCTGATCATAGTCAGACCAACATTGCTACGACCCGTATTCGCACCGACAC”, for which the “relative integration efficiency (log2)” value is -3.65 ± 0.85.

With “ACATTTGTTGATACACAACGCCCCGTCGCCGGCACAAACGCCCGGTCGCCGGCGACACAAACGCCCGGTCGCGGTAAGAGGATCATAGTCAGACCAACATTGCTACGACCCGTATTCGCACCGACAC”, the “relative integration efficiency (log2)” value is -5.17 ± 0.85.

Take “ACATTTGTTGATACAACCATAAAATGATAATTACACCCATAAATTGATAATTATCACACCCATAAATTGATATTGCCTCTGATAACTTCGTATAAGGTATACTATACGAAGTTATTCGCACCGACAC”: the “relative integration efficiency (log2)” value amounted to 1.55 ± 0.38.

For the sequence “ACATTTGTTGATACAACCATAAAATGATAATTACACCCATAAATTGATAATTATCACACCACGCCCGGTCGCGGTAAGAGGATCATAGTCAGACCAACATTGCTACGACCCGTATTCGCACCGACAC”, the “relative integration efficiency (log2)” value is 2.46 ± 0.034.

Regarding “ACATTTGTTGATACAACCATAAAATGATAATTACAACCATAAGTTGATATTTTTCAGTGGGTATTTAACTATAACGCTCTGATCATAGTCAGACCAACATTGCTACGACCCGTATTCGCACCGACAC”, the “relative integration efficiency (log2)” value was 2.72 ± 0.21.

As for “ACATTTGTTGATACAACCATAAAATGATAATTAATAATTATTTATAATCAGCAACTCACCCATAAATTGATAATTATCACACCCATAAATTGATATTGCCTCTGATCATAGTCAGACCAACATTGCT”, the “relative integration efficiency (log2)” value is -2.22 ± 1.2.

In the case of “ACATTTGTTCATACAACCATAAAATGATAATTACCACCCATACATTGATAATTATCACACCCATTTAACTATAACGCTCTGATCATAGTCAGACCAACATTGCTACGACCCGTATTCGCACCGACAC”, the “relative integration efficiency (log2)” value is -2.29 ± 0.1.

“ACATTTGTCGATCCAACCATAAAATGATAATTACACCCATAAATTGATAATTATCACACCCAATTTAACTATAACGCTCTGATCATAGTCAGACCAACATTGCTACGACCCGTATTCGCACCGACAC”: the “relative integration efficiency (log2)” value stood at 2.2 ± 0.23.

As to “ACATTTGTTGATACAACCATAAAATGATAATTACACCCATAAATTGATAATTATCACACCCATAAATTGATATTGCCTCTTCATGCAGATTTGAACAGTAAGTTTACGACATTTTCAGCACCGACAC”, the “relative integration efficiency (log2)” value amounted to 1.32 ± 0.14.

As for “ACATTTGTTGATACACCCATAAATTGATATTGCCACCCATAAATTGATAATTATCACACCCATAAATTGATATTGCCTCTGATCATAGTCAGACCAACATTGCTACGACCCGTATTCGCACCGACAC”, the “relative integration efficiency (log2)” value is -0.216 ± 0.095.

Turning to “ACATTTGTTGATACAACCATATATTGATATCTCCAACCATAAGTTGATATTTTTCACAACCATAAAATGATAATTACTCTGATCATAGTCAGACCAACATTGCTACGACCCGTATTCGCACCGACAC”, the “relative integration efficiency (log2)” value is -0.448 ± 0.2.

As for “ACATTTGTTGATACAACCATAAAGTGATATTTACAACCATAAAATGATAATTATCACAACCATATATTGATATCTCCTCTGATCATAGTCAGACCAACATTGCTACGACCCGTATTCGCACCGACAC”, the “relative integration efficiency (log2)” value was -0.163 ± 0.73.

Take “ACATTTGTTGATACAACCATAAGTTGATATTTTCAACCATAAGTTGATATTTTTCACAACCATATATTGATATCTCCTCTGATCATAGTCAGACCAACATTGCTACGACCCGTATTCGCACCGACAC”: the “relative integration efficiency (log2)” value was -0.115 ± 0.22.

On to “ACATTTGTTGATACAACCCTAAAATGATAATTACACCCATAAATTGATAATTATCACCCCCAATTTAACTATAACGCTCTGATCATAGTCAGACCAACATTGCTACGACCCGTATTCGCACCGACAC”, for which the “relative integration efficiency (log2)” value turned out to be 1.5 ± 0.089.

Turning to “ACATTTGTTGATACAACCATAAAGTGATATTTACAACCATAAAGTGATATTTATCACAACCATATATTGATATCTCCTCTGATCATAGTCAGACCAACATTGCTACGACCCGTATTCGCACCGACAC”, the “relative integration efficiency (log2)” value turned out to be 0.458 ± 0.14.

For the sequence “ACATTTGTTGATAAAACCATAAAATGATTATTACACCCATAAATTGATAATTATCACACCCATAAATTGATATTGCCTCTGATCATAGTCAGACCAACATTGCTACGACCCGTATTCGCACCGACAC”, the “relative integration efficiency (log2)” value is -0.755 ± 0.22.

Turning to “CAAAATGTAAAAACAACCATAAAATGATAATTAGAAACCATACGCTGAAATAAAAACAACCATACCTTGAAATTGCTTATAAAGTGTACAACACTTGAGAAAGTTTACTACAGGTATGCACCGACAC”, the “relative integration efficiency (log2)” value turned out to be 2.48 ± 0.26.
